From US6875741 (Novo Nordisk, dated 2005)

What was measured:
[1] = target: T1, soluble human insulin receptor-immunoglobulin heavy chain chimera (human, UniProt P06213 28-956); assay: phage ELISA ratios compared
T1 construct: extracellular domain; Heterotetramer; also called IR; sIR-Fc; not shown: immunoglobulin heavy chain constant domains replacing the transmembrane and intr

[2] = target: T2, Soluble IGF-1R (R&D Systems, Cat. # 391-GR) (UniProt P08069 31-935, limits assumed); assay: phage ELISA ratios compared
T2 construct: extracellular domain; bought; also called sIGF-1R

Row | IR/IGF-1R ratio comparison [1] | IGF-1R/IR ratio comparison [2] | Binder
1 | 0.1 | 7.4 | ICTGQGFYQVLCGLLRGTSAR [20E2B-2-B3-IGFR]
2 | 0.2 | 5.1 | VGTVAGFYDAIAQLVARASRV [20E2A-3-C7-IGFR]
3 | 0.3 | 3.9 | LSVALSFYDALGQLVAGEGRW [20E2A-3-A12-IGFR]
4 | 0.2 | 5.6 | RCQGTGFYTCIQELIGFGDPD [20E2B-4-H9-IGFR]
5 | 0.2 | 6 | FFYRCLSRLLGGQLGSRLGLSCIGD [20C-3-E4-IGFR]
6 | 0.1 | 7 | RQGTGSFYLMLEQLLVGARGP [20E2B-4-G11-IGFR]
7 | 0.2 | 5.9 | PAGPCGFYCGLGLLLHGDQSP [20E2B-4-H8-IGFR]
8 | 0.2 | 4.3 | GCAVVEEAERSRGDPFYHKLSELIQGC [B6Hα-3-E7-IR]
9 | 0.1 | 6.7 | LSSDGQFYRALNLLLQGSAGR [20E2B-2-B7-IGFR]
10 | 0.2 | 5.3 | SGAKVIVVTGDSGDPFYHKLSELLQGS [B6Hα-2-C10-IR]
11 | 0.1 | 7.6 | QFYGCLLDLSLGVPSFGWRRRCITA [20C-3-A4-IGFR]
12 | 0.1 | 7.1 | EGSGFYGYFFSLLGLQG [NNRPγ-4-A9-IR]
13 | 0.1 | 7.8 | AQPCGGFYGLLEQLVGRSVCD [20E2B-4-F10-IGFR]
14 | 0.2 | 6.2 | ASSASGFYELLQRLAGLGLEV [20E2B-3-C4-IGFR]
15 | 0.1 | 7.3 | QGNVLDFYGWIGRLLAKQGSD [20E2B-3-D12-IGFR]
16 | 0.1 | 6.9 | DSVGDNFYQLLESLVGGHGVG [20E2B-3-D6-IGFR]
17 | 0.2 | 4.8 | RGKTAAVIVGRPADPFYHKLSELLQGG [B6Hα-3-E8-IR]
18 | 0.2 | 4.9 | RFDPFYSYFVNLLGASA [NNRPγ-4-A7-IR]
19 | 0.2 | 5 | TLRSPTFYDWLEMVLTHGQGG [20E2B-1-A8-IGFR]
20 | 0.1 | 7.2 | IWATGDFYRLLSQLVMGRVGT [20E2B-2-B8-IGFR]
21 | 0.1 | 7.3 | VATSQGFYSGLSELLQGGGNV [20E2B-3-E12-IGFR]
